Results published in the supplement of paper PMC10065799, “High-throughput profiling of sequence recognition by tyrosine kinases and SH2 domains using bacterial peptide display” (eLife, 2023).

target: Hck (UniProt P08631); assay: phosphorylation enrichment, bacterial display (enrichment ratio); higher = better substrate or ligand; peptides without Tyr show the background
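Note: 11-residue human phosphosite peptides and single-mutation variants displayed on the E. coli surface, counted by deep sequencing, each peptide's frequency after selection divided by its frequency in the unselected input library; frequency after pTyr selection over input frequency; kinase dosed for 20-30% of maximal phosphorylation in three min.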

Sequence of Hck (P08631 whole entry, looked up): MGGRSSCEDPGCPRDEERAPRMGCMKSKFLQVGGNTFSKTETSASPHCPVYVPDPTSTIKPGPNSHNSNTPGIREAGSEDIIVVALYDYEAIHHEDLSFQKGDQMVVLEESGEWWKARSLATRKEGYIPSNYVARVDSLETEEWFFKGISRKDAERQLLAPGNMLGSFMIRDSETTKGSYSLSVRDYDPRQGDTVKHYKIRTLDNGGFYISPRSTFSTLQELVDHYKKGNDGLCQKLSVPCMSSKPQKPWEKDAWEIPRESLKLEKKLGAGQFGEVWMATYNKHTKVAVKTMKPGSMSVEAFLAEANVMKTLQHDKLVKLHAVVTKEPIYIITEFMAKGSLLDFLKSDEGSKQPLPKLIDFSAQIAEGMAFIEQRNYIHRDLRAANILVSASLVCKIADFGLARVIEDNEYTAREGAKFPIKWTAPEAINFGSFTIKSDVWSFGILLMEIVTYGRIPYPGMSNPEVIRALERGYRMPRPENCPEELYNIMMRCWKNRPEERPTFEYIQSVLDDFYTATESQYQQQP

Point of comparison: NTADYYDLYGG [PTPN11_Y63_G60A], phosphorylation enrichment 5.89. Against it:
- GKSHIYFWTLD [EML2_Y230_E235D] — lower, 0.521
- KWTVDYLGQVG [TYW5_Y48_S50G] — lower, 0.487
- LNCIYYKDQTG [RS1_Y166_W163C] — lower, 4.01
- GMSQAYSFSQR [DES_Y5_S7F] — lower, 0.379
- ADSLRYIYPKL [EIF2B3_Y92] — lower, 0.386
- FQLENYCNGGG [INS_Y108_YF] — lower, 0.619
- GIKAAYEAELG [LMNA_Y81] — lower, 0.438
- FSMGCYEIFLG [HMGCL_Y198_S201Y_YF] — lower, 3.21
- TYEPNYGTVKQ [RAPGEF6_Y1447] — lower, 1.66
- MDNQEYKDAYK [BRDT_Y331] — lower, 0.474
- DYSLKYPTDIP [APC_Y1183_A1184P] — lower, 0.503
- AFEQQYSPIPR [NOX1_Y373] — lower, 4.92
- KELANYYKLHH [AK7_Y390] — lower, 0.495
- SVDRDYVLKSA [HTATIP2_Y111_R106S] — lower, 0.399
- NNPAYYVLEGV [INPPL1_Y987] — lower, 1.11
- SSDPDYRAAVD [GLB1_Y154_L155R] — lower, 0.527
- TNIKRYHIAKV [HARS1_Y150] — lower, 0.264
- MKKKIYAMGGG [GAN_Y424] — lower, 0.414
- VQDPAYLRDID [OPRK1_Y369] — lower, 0.567
- DCAAIYGNEPD [AKR1A1_Y50_E55D] — lower, 1.09
- NWGSPYKSDGC [ZNF347_Y261_N264D] — lower, 0.442
- SRNKPYISWPS [CDC42BPB_Y1638] — lower, 0.485
- QKDIFYGLRSL [IGSF10_Y126_T124I] — lower, 0.676
- LENSTYQYICV [CRB1_Y760_R764C] — the same, 5.89
- ASRKYYAMKIL [AKT3_Y174_G171R] — lower, 0.368
- VLTPKYRGGGG [HBA1_Y141_S139P] — lower, 0.32
- SLNEEYTKNKT [MSH2_Y563] — lower, 0.37
- DWRQEYVLNES [TGM1_Y267] — lower, 0.686
- EAESWYQTKYE [KRT75_Y342] — lower, 0.545
- HNMPIYEGYAL [ACTA1_Y168_V165M] — higher, 13.5
- FFNSEYGELSE [FLT4_Y1337_YF] — lower, 0.791
- QFPDIYAREEV [CRX_Y67_V66I_YF] — lower, 1.56

target: Jak2 (UniProt O60674); assay: as above
Sequence (O60674 whole entry, looked up): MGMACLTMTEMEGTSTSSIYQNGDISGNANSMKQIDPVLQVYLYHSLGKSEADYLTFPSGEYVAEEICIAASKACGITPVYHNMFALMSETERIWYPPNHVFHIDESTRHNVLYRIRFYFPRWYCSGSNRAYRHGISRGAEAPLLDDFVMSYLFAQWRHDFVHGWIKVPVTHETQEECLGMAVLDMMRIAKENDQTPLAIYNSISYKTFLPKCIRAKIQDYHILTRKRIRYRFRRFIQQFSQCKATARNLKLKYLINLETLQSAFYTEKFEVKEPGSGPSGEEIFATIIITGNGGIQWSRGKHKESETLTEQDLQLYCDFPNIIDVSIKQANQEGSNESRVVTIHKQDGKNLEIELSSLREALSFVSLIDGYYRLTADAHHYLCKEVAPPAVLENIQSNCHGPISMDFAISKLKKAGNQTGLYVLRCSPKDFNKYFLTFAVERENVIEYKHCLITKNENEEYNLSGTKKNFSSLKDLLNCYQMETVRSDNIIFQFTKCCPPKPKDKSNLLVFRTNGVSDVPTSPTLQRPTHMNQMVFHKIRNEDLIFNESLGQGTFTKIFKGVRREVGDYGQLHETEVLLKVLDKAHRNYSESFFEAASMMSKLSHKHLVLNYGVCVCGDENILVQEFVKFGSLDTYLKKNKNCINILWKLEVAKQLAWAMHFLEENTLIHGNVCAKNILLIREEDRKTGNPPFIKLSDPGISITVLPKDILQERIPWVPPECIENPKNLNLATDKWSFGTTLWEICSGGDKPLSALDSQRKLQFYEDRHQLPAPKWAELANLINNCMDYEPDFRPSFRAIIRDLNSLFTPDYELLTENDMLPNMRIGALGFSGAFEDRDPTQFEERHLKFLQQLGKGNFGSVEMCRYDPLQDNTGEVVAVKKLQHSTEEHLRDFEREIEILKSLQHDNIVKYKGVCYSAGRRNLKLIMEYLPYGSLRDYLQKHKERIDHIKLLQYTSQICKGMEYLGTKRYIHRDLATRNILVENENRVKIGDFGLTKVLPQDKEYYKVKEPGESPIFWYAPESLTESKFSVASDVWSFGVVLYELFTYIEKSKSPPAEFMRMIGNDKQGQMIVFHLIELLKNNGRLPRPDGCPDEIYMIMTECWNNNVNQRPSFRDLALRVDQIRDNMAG

Point of comparison: QKDIFYGLRSL [IGSF10_Y126_T124I], phosphorylation enrichment 1.12. Against it:
- GKSHIYFWTLD [EML2_Y230_E235D] — lower, 1.11
- KWTVDYLGQVG [TYW5_Y48_S50G] — lower, 0.845
- LNCIYYKDQTG [RS1_Y166_W163C] — higher, 1.42
- GMSQAYSFSQR [DES_Y5_S7F] — lower, 0.551
- ADSLRYIYPKL [EIF2B3_Y92] — lower, 0.634
- FQLENYCNGGG [INS_Y108_YF] — higher, 2.44
- GIKAAYEAELG [LMNA_Y81] — lower, 0.691
- FSMGCYEIFLG [HMGCL_Y198_S201Y_YF] — higher, 1.51
- TYEPNYGTVKQ [RAPGEF6_Y1447] — lower, 0.47
- MDNQEYKDAYK [BRDT_Y331] — lower, 0.901
- DYSLKYPTDIP [APC_Y1183_A1184P] — lower, 0.852
- AFEQQYSPIPR [NOX1_Y373] — lower, 0.583
- KELANYYKLHH [AK7_Y390] — higher, 2.44
- SVDRDYVLKSA [HTATIP2_Y111_R106S] — lower, 0.571
- NNPAYYVLEGV [INPPL1_Y987] — higher, 4.89
- SSDPDYRAAVD [GLB1_Y154_L155R] — lower, 0.793
- TNIKRYHIAKV [HARS1_Y150] — lower, 0.43
- MKKKIYAMGGG [GAN_Y424] — lower, 0.39
- VQDPAYLRDID [OPRK1_Y369] — higher, 1.24
- DCAAIYGNEPD [AKR1A1_Y50_E55D] — higher, 1.25
- NWGSPYKSDGC [ZNF347_Y261_N264D] — lower, 0.673
- SRNKPYISWPS [CDC42BPB_Y1638] — lower, 0.977
- LENSTYQYICV [CRB1_Y760_R764C] — higher, 2.13
- ASRKYYAMKIL [AKT3_Y174_G171R] — lower, 0.385
- VLTPKYRGGGG [HBA1_Y141_S139P] — lower, 0.335
- SLNEEYTKNKT [MSH2_Y563] — lower, 0.593
- DWRQEYVLNES [TGM1_Y267] — lower, 0.863
- EAESWYQTKYE [KRT75_Y342] — lower, 1.07
- HNMPIYEGYAL [ACTA1_Y168_V165M] — lower, 0.831
- FFNSEYGELSE [FLT4_Y1337_YF] — lower, 1.02
- QFPDIYAREEV [CRX_Y67_V66I_YF] — higher, 2.02
- NTADYYDLYGG [PTPN11_Y63_G60A] — higher, 3.39

target: MERTK (UniProt Q12866); assay: as above
Sequence (Q12866 whole entry, looked up): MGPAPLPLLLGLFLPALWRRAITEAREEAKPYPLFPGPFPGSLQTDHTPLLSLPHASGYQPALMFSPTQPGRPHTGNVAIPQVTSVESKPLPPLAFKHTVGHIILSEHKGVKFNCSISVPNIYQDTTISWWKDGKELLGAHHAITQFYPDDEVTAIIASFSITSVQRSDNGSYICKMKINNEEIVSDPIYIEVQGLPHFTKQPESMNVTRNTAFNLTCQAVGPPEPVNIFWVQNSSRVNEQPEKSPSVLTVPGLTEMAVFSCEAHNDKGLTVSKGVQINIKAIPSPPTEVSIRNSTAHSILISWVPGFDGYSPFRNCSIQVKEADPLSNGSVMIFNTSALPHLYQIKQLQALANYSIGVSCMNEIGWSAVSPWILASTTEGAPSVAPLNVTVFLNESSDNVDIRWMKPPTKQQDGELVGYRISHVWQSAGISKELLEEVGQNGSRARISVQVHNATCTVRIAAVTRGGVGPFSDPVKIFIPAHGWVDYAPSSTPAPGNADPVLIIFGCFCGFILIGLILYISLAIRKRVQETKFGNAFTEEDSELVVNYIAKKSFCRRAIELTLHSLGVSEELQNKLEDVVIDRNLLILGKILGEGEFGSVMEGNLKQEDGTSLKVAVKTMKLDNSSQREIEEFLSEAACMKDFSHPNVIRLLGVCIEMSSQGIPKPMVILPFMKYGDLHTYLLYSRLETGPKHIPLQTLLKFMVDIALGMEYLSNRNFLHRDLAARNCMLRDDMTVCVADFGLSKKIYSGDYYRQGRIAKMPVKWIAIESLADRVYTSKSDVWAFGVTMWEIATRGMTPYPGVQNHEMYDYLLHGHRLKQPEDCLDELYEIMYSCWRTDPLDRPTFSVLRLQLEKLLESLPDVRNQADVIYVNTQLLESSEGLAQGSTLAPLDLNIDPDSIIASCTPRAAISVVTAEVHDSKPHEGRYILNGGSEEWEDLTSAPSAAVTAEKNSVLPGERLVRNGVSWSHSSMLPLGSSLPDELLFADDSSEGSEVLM

Point of comparison: TNIKRYHIAKV [HARS1_Y150], phosphorylation enrichment 0.358. Against it:
- GKSHIYFWTLD [EML2_Y230_E235D] — higher, 0.778
- KWTVDYLGQVG [TYW5_Y48_S50G] — lower, 0.336
- LNCIYYKDQTG [RS1_Y166_W163C] — higher, 1.78
- GMSQAYSFSQR [DES_Y5_S7F] — higher, 0.721
- ADSLRYIYPKL [EIF2B3_Y92] — higher, 0.43
- FQLENYCNGGG [INS_Y108_YF] — higher, 0.45
- GIKAAYEAELG [LMNA_Y81] — higher, 0.404
- FSMGCYEIFLG [HMGCL_Y198_S201Y_YF] — higher, 4.33
- TYEPNYGTVKQ [RAPGEF6_Y1447] — higher, 0.644
- MDNQEYKDAYK [BRDT_Y331] — higher, 0.445
- DYSLKYPTDIP [APC_Y1183_A1184P] — higher, 0.549
- AFEQQYSPIPR [NOX1_Y373] — higher, 1.25
- KELANYYKLHH [AK7_Y390] — higher, 0.844
- SVDRDYVLKSA [HTATIP2_Y111_R106S] — higher, 0.4
- NNPAYYVLEGV [INPPL1_Y987] — higher, 9.04
- SSDPDYRAAVD [GLB1_Y154_L155R] — higher, 0.471
- MKKKIYAMGGG [GAN_Y424] — higher, 0.432
- VQDPAYLRDID [OPRK1_Y369] — higher, 0.468
- DCAAIYGNEPD [AKR1A1_Y50_E55D] — higher, 0.585
- NWGSPYKSDGC [ZNF347_Y261_N264D] — lower, 0.345
- SRNKPYISWPS [CDC42BPB_Y1638] — higher, 0.441
- QKDIFYGLRSL [IGSF10_Y126_T124I] — higher, 0.844
- LENSTYQYICV [CRB1_Y760_R764C] — higher, 6.83
- ASRKYYAMKIL [AKT3_Y174_G171R] — higher, 0.437
- VLTPKYRGGGG [HBA1_Y141_S139P] — lower, 0.35
- SLNEEYTKNKT [MSH2_Y563] — lower, 0.348
- DWRQEYVLNES [TGM1_Y267] — higher, 0.53
- EAESWYQTKYE [KRT75_Y342] — higher, 0.505
- HNMPIYEGYAL [ACTA1_Y168_V165M] — higher, 11
- FFNSEYGELSE [FLT4_Y1337_YF] — higher, 0.399
- QFPDIYAREEV [CRX_Y67_V66I_YF] — higher, 0.773
- NTADYYDLYGG [PTPN11_Y63_G60A] — higher, 3.04

test system: c-Abl (mouse); assay: as above

Point of comparison: SSDPDYRAAVD [GLB1_Y154_L155R], phosphorylation enrichment 0.669. Against it:
- GKSHIYFWTLD [EML2_Y230_E235D] — higher, 0.847
- KWTVDYLGQVG [TYW5_Y48_S50G] — lower, 0.621
- LNCIYYKDQTG [RS1_Y166_W163C] — higher, 1.08
- GMSQAYSFSQR [DES_Y5_S7F] — lower, 0.454
- ADSLRYIYPKL [EIF2B3_Y92] — lower, 0.471
- FQLENYCNGGG [INS_Y108_YF] — higher, 1.76
- GIKAAYEAELG [LMNA_Y81] — higher, 0.704
- FSMGCYEIFLG [HMGCL_Y198_S201Y_YF] — higher, 1.28
- TYEPNYGTVKQ [RAPGEF6_Y1447] — higher, 1.2
- MDNQEYKDAYK [BRDT_Y331] — higher, 0.677
- DYSLKYPTDIP [APC_Y1183_A1184P] — lower, 0.52
- AFEQQYSPIPR [NOX1_Y373] — higher, 0.701
- KELANYYKLHH [AK7_Y390] — lower, 0.497
- SVDRDYVLKSA [HTATIP2_Y111_R106S] — higher, 0.699
- NNPAYYVLEGV [INPPL1_Y987] — higher, 0.711
- TNIKRYHIAKV [HARS1_Y150] — lower, 0.375
- MKKKIYAMGGG [GAN_Y424] — lower, 0.519
- VQDPAYLRDID [OPRK1_Y369] — higher, 0.905
- DCAAIYGNEPD [AKR1A1_Y50_E55D] — higher, 0.978
- NWGSPYKSDGC [ZNF347_Y261_N264D] — higher, 0.723
- SRNKPYISWPS [CDC42BPB_Y1638] — lower, 0.477
- QKDIFYGLRSL [IGSF10_Y126_T124I] — higher, 1.03
- LENSTYQYICV [CRB1_Y760_R764C] — higher, 1.61
- ASRKYYAMKIL [AKT3_Y174_G171R] — lower, 0.379
- VLTPKYRGGGG [HBA1_Y141_S139P] — lower, 0.421
- SLNEEYTKNKT [MSH2_Y563] — lower, 0.537
- DWRQEYVLNES [TGM1_Y267] — higher, 0.677
- EAESWYQTKYE [KRT75_Y342] — higher, 0.686
- HNMPIYEGYAL [ACTA1_Y168_V165M] — higher, 11.3
- FFNSEYGELSE [FLT4_Y1337_YF] — higher, 0.875
- QFPDIYAREEV [CRX_Y67_V66I_YF] — higher, 0.99
- NTADYYDLYGG [PTPN11_Y63_G60A] — higher, 1.13
